# Legend:
# CD8+ T-cells = test: In vitro T-cell priming assay with aAPCs loaded with peptide/MHC and anti-CD28, pMHC multimer readout; assay type: cell-based, human; conditions: for Wells positive [%]: HLA-A*02 restricted peptides, positive wells among evaluable; for donors (in vitro immunogenicity, positive donors) / wells (in vitro immunogenicity, positive wells): HLA class I peptides, healthy donor CD8+ T-cells, multimer staining
# Text: In order to obtain information regarding the immunogenicity of the TUMAPs of the present invention, the inventors performed investigations using an in vitro T-cell priming assay based on repeated stimulations of CD8+ T-cells with artificial antigen presenting cells (aAPCs) loaded with peptide/MHC complexes and anti-CD28 antibody.
# In order to perform in vitro stimulations by artificial antigen presenting cells loaded with peptide-MHC complex (pMHC) and anti-CD28 antibody, the inventors first isolated CD8+ T-cells from fresh HLA-A*02 leukapheresis products via positive selection using CD8 microbeads (Miltenyi Biotec, Bergisch-Gladbach, Germany) of healthy donors obtained from the University clinics Mannheim, Germany, after informed consent.
# PBMCs and isolated CD8+ lymphocytes were incubated in T-cell medium (TCM) until use consisting of RPMI-Glutamax (Invitrogen, Karlsruhe, Germany) supplemented with 10% heat inactivated human AB serum (PAN-Biotech, Aidenbach, Germany), 100 U/ml Penicillin/100 μg/ml Streptomycin (Cambrex, Cologne, Germany), 1 mM sodium pyruvate (CC Pro, Oberdorla, Germany), 20 μg/ml Gentamycin (Cambrex). 2.5 ng/ml IL-7 (PromoCell, Heidelberg, Germany) and 10 U/ml IL-2 (Novartis Pharma, Nürnberg, Germany) were also added to the TCM at this step.
# Generation of pMHC/anti-CD28 coated beads, T-cell stimulations and readout was performed in a highly defined in vitro system using four different pMHC molecules per stimulation condition and 8 different pMHC molecules per readout condition.
# The purified co-stimulatory mouse IgG2a anti human CD28 Ab 9.3 (Jung et al., 1987) was chemically biotinylated using Sulfo-N-hydroxysuccinimidobiotin as recommended by the manufacturer (Perbio, Bonn, Germany). Beads used were 5.6 μm diameter streptavidin coated polystyrene particles (Bangs Laboratories, Illinois, USA).
# 800.000 beads/200 μl were coated in 96-well plates in the presence of 4×12.5 ng different biotin-pMHC, washed and 600 ng biotin anti-CD28 were added subsequently in a volume of 200 μl. Stimulations were initiated in 96-well plates by co-incubating 1×10^6 CD8+ T-cells with 2×10^5 washed coated beads in 200 μl TCM supplemented with 5 ng/ml IL-12 (PromoCell) for 3 days at 37° C. Half of the medium was then exchanged by fresh TCM supplemented with 80 U/ml IL-2 and incubating was continued for 4 days at 37° C. This stimulation cycle was performed for a total of three times. For the pMHC multimer readout using 8 different pMHC molecules per condition, a two-dimensional combinatorial coding approach was used as previously described (Andersen et al., 2012) with minor modifications encompassing coupling to 5 different fluorochromes. Finally, multimeric analyses were performed by staining the cells with Live/dead near IR dye (Invitrogen, Karlsruhe, Germany), CD8-FITC antibody clone SK1 (BD, Heidelberg, Germany) and fluorescent pMHC multimers. For analysis, a BD LSRII SORP cytometer equipped with appropriate lasers and filters was used. Peptide specific cells were calculated as percentage of total CD8+ cells. Evaluation of multimeric analysis was done using the FlowJo software (Tree Star, Oreg., USA). In vitro priming of specific multimer+ CD8+ lymphocytes was detected by comparing to negative control stimulations.
# HLA-A*02:01 = HLA-A*02:01 (Homo sapiens, UniProt P04439, D140Y/D185E/D98H/E176V/E277Q/G131W/G231S/I119V/I121R/I166T/I218V/L300P/L318F/N151K/N90K/P208A/P217A/Q86G/Q94H/R138H/R169H/T345S); test: MHC binding assay (UV-ligand exchange, beta2m ELISA, peptide exchange yield); conditions: binding to HLA-A*02:01
# Text: Candidate peptides for T cell based therapies according to the present invention were further tested for their MHC binding capacity (affinity). The individual peptide-MHC complexes were produced by UV-ligand exchange, where a UV-sensitive peptide is cleaved upon UV-irradiation, and exchanged with the peptide of interest as analyzed. Only peptide candidates that can effectively bind and stabilize the peptide-receptive MHC molecules prevent dissociation of the MHC complexes. To determine the yield of the exchange reaction, an ELISA was performed based on the detection of the light chain ([…]) of stabilized MHC complexes. The assay was performed as generally described in Rodenko et al. (Rodenko et al., 2006).
# 96 well MAXISorp plates (NUNC) were coated over night with 2 ug/ml streptavidin in PBS at room temperature, washed 4× and blocked for 1 h at 37° C. in 2% BSA containing blocking buffer. Refolded HLA-A*02:01/MLA-001 monomers served as standards, covering the range of 15-500 ng/ml. Peptide-MHC monomers of the UV-exchange reaction were diluted 100 fold in blocking buffer. Samples were incubated for 1 h at 37° C., washed four times, incubated with 2 ug/ml HRP conjugated anti-β2m for 1 h at 37° C., washed again and detected with TMB solution that is stopped with […]. Absorption was measured at 450 nm. Candidate peptides that show a high exchange yield (preferably higher than 50%, most preferred higher than 75%) are generally preferred for a generation and production of antibodies or fragments thereof, and/or T cell receptors or fragments thereof, as they show sufficient avidity to the MHC molecules and prevent dissociation of the MHC complexes.
"Peptide exchange (MHC class I binding score, peptide exchange yield) (HLA-A*02:01)",Substance,further results
″+++” (≥50 = +++),1 (ALIKQLFEA; listed as Homo sapiens) [compound 1],Wells positive [%] (CD8+ T-cells): ″+” (<20% = +)
“++” (≥20% = ++),2 (ALLPRYFFL; listed as Homo sapiens) [compound 2],Wells positive [%] (CD8+ T-cells): “++++” (> = 70% = ++++)
–,3 (RLIPDTLYSV; listed as Homo sapiens) [compound 3],Wells positive [%] (CD8+ T-cells): “+++” (50%-69% = +++)
“++++” (≥75% = ++++),5 (WLFDDGGLTL; listed as Homo sapiens) [compound 5],Wells positive [%] (CD8+ T-cells): “++” (20%-49% = ++)
“++” (≥20% = ++),7 (YLTRHLAVL; listed as Homo sapiens) [compound 7],Wells positive [%] (CD8+ T-cells): “+” (<20% = +)
“++” (≥20% = ++),9 (ILDDHLSRV; listed as Homo sapiens) [compound 9],Wells positive [%] (CD8+ T-cells): “+” (<20% = +)
“+++” (≥50 = +++),10 (RMYNKIFAI; listed as Homo sapiens) [compound 10],Wells positive [%] (CD8+ T-cells): “++++” (> = 70% = ++++)
“+++” (≥50 = +++),11 (YLFEKTFNM; listed as Homo sapiens) [compound 11],Wells positive [%] (CD8+ T-cells): “+” (<20% = +)
“+++” (≥50 = +++),12 (ALVQGILERV; listed as Homo sapiens) [compound 12],Wells positive [%] (CD8+ T-cells): “++++” (> = 70% = ++++)
“+++” (≥50 = +++),13 (FLLAEDTKV; listed as Homo sapiens) [compound 13],Wells positive [%] (CD8+ T-cells): “++” (20%-49% = ++)
“+++” (≥50 = +++),161 (FLKNELDNV; listed as Homo sapiens) [compound 161],–
“+++” (≥50 = +++),162 (KLMDYIDEL; listed as Homo sapiens) [compound 162],–
“+++” (≥50 = +++),163 (RLLHEVQEL; listed as Homo sapiens) [compound 163],–
“++++” (≥75% = ++++),164 (KMLDEILLQL; listed as Homo sapiens) [compound 164],–
“++++” (≥75% = ++++),165 (RLLDFPEAMVL; listed as Homo sapiens) [compound 165],–
“+++” (≥50 = +++),166 (GLLEARGILGL; listed as Homo sapiens) [compound 166],–
“+++” (≥50 = +++),167 (SVIDHIHLISV; listed as Homo sapiens) [compound 167],–
“+++” (≥50 = +++),168 (GLIRFPLMTI; listed as Homo sapiens) [compound 168],–
“+++” (≥50 = +++),169 (YLAHFIEGL; listed as Homo sapiens) [compound 169],–
“+++” (≥50 = +++),170 (ALAGGITMV; listed as Homo sapiens) [compound 170],–
“++” (≥20% = ++),171 (RLQETEGMVAV; listed as Homo sapiens) [compound 171],–

"Peptide exchange (MHC class I binding score, peptide exchange yield) (HLA-A*02:01)",Substance,further results
“+++” (≥50 = +++),172 (LLLDTVTMQV; listed as Homo sapiens) [compound 172],–
“+++” (≥50 = +++),173 (KLGDLMVLL; listed as Homo sapiens) [compound 173],–
“++++” (≥75% = ++++),174 (ILLDDNMQIRL; listed as Homo sapiens) [compound 174],–
“+++” (≥50 = +++),175 (TLLGGKEAQALGV; listed as Homo sapiens) [compound 175],–
“++” (≥20% = ++),176 (RTLDKVLEV; listed as Homo sapiens) [compound 176],–
“+++” (≥50 = +++),177 (ALLQGAIESV; listed as Homo sapiens) [compound 177],–
“++” (≥20% = ++),178 (YLFREPATI; listed as Homo sapiens) [compound 178],–
“+++” (≥50 = +++),179 (RLLSPLSSA; listed as Homo sapiens) [compound 179],–
“+++” (≥50 = +++),181 (NLFDLGGQYLRV; listed as Homo sapiens) [compound 181],–
“++++” (≥75% = ++++),182 (SLNKWIFTV; listed as Homo sapiens) [compound 182],–
“+++” (≥50 = +++),183 (TLQEVVTGV; listed as Homo sapiens) [compound 183],–
“+++” (≥50 = +++),184 (SLLDENNVSSYL; listed as Homo sapiens) [compound 184],–
“+++” (≥50 = +++),185 (VLYTGVVRV; listed as Homo sapiens) [compound 185],–
“+++” (≥50 = +++),186 (KMSEKILLL; listed as Homo sapiens) [compound 186],–
“+++” (≥50 = +++),187 (GLHNVVYGI; listed as Homo sapiens) [compound 187],–
“+++” (≥50 = +++),188 (FLVDGPRVQL; listed as Homo sapiens) [compound 188],–
“+++” (≥50 = +++),189 (AISEVIGKITA; listed as Homo sapiens) [compound 189],–
“+++” (≥50 = +++),190 (AMAEMVLQV; listed as Homo sapiens) [compound 190],–
“++++″ (≥75% = ++++),191 (QLFSEIHNL; listed as Homo sapiens) [compound 191],–
–,219 (FLDEKGRCV; listed as Homo sapiens) [compound 219],"donors (in vitro immunogenicity, positive donors) (CD8+ T-cells): +++ (50% − 69% = +++); wells (in vitro immunogenicity, positive wells) (CD8+ T-cells): ++ (20% − 49% = ++)"
–,220 (KMDPVAYRV; listed as Homo sapiens) [compound 220],"donors (in vitro immunogenicity, positive donors) (CD8+ T-cells): ++++ (>=70% = ++++); wells (in vitro immunogenicity, positive wells) (CD8+ T-cells): +++ (50% − 69% = +++)"
